From PMC12804944 (Nature Communications, 2025)

B1: SK3-Fc (Fc fusion, human)
VH: QVLVETGGGVVQPGRSLRLSCAASGFTFSSYGMHWVRQAPGKGLEWVAVISYDGDDKDYADSVKGRFTISRDNADSSVFLQMNSLRAEDTALYYCAREGQWVGGALDIWGQGTMVTVSS
VL: DIVMTQSPSTLSASLGDTVTITCRASQSINGWLAWYQQKPGKAPNLLIYQAPNLESGVPSRFSGSGSGTEFTLTINGLQPDDFATYYCQKYDNAPHTFGQGTKVEIK
B2: SK4-Fc (Fc fusion, human)
VH: QVQLVETGGGVVQVGRSLRLSCAASGFTFSHYGMHWVRQAPGKGLEWVSGISWNSDRRGYADSVKGRFTISRDNTKNSLYLQMNSLRAEDTAVYYCVREFYDAFDIWGQGTMVTVSS
VL: DIQMTQSPSSLPAYVGDRVTISCRASQSIRTYLNWYRQKVGKAPELLVYDASSLHKGVPSRFSASGSGTDFSLTISSLQPEDFATYYCQQSFSSPRTFGQGTKVEIK

Biological target: human FcγRIIb on Huvec-2b cells (Homo sapiens (Human)., UniProt P31994)
Test: flow cytometry on cells

Chain of human FcγRIIb on Huvec-2b cells (P31994 43-310): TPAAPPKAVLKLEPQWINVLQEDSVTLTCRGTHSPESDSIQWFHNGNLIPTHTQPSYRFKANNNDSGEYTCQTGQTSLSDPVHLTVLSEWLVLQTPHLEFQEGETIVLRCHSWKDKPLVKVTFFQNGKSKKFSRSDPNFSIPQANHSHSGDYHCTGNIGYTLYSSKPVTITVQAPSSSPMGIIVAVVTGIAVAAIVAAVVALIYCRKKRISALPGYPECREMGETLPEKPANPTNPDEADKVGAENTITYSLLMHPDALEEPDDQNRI

| Binder | binding result |
| --- | --- |
| B1 | binds |
| B2 | binds |
